This passage reports binding results from paper PMC9584953.

Changes are numbered by the printed parent chain.

Test in all cases: EMSA
Common to all, as to conditions: EMSA: 50 mM Tris-HCl pH 7.5, 50 mM KCl, 5 mM CaCl2, 5% glycerol, 0.0025% NP-40, 0.8 ug poly(dI-dC), room temperature 30 min
On the technique in general: In EMSA bound probe runs differently from free probe, usually more slowly.

The subject of data set [1] is T1, OmpR A136D A136D (Salmonella (strain not given in material)), ORF:d8521a76.
T1 sequence: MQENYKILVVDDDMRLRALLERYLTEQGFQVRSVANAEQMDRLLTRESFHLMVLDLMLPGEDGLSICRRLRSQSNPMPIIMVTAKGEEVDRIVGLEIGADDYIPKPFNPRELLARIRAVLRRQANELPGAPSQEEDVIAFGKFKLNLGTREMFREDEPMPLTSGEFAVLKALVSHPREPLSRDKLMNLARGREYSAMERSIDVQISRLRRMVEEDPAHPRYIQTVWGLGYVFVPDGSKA

In data set [2] the test system is T2, OmpR D55A D55A (Salmonella (strain not given in material)), ORF:d8521a76.
T2 sequence: T1 sequence with D55A, D136A

The subject of data set [3] is T3, OmpR I138D I138D (Salmonella (strain not given in material)), ORF:d8521a76.
T3 sequence: T1 sequence with D136A, I138D

Data set [4] deals with T4, OmpR R182D R182D (Salmonella (strain not given in material)), ORF:d8521a76.
T4 sequence: T1 sequence with D136A, R182D

The test system of data set [5] is T5, OmpR Y230D Y230D (Salmonella (strain not given in material)), ORF:d8521a76.
T5 sequence: T1 sequence with D136A, Y230D

On to “CATCTTTCCATTCAAACTAACGTTTCGCTACCGTGAAAGTGCTACAAAGATAAAGATTTGGTTTCAAAAGGAAAT (double strand) [PompF (F2 and F3 OmpR sites)]”, for which the binding entry was “binds” in data set [1]; “binds more weakly” in data set [2]; “binds” in data set [3]; “binds” in data set [4]; “binds” in data set [5].
